Numbering of substitutions follows the chain as printed.
B1: bsAb25441D bispecific antibody (REGN5458), anti-BCMA x anti-CD3 (bispecific antibody, human IgG4 S228P, kappa)
heavy 1: EVQLVESGGGLVQPGGSLRLSCAASGFTFSNFWMTWVRQAPGKGLEWVANMNQDGSEKYYVDSVKGRFTISRDNAKSSLYLQMNSLRAEDTAVYYCARDREYCISTSCYDDFDYWGQGTLVTVSSASTKGPSVFPLAPCSRSTSESTAALGCLVKDYFPEPVTVSWNSGALTSGVHTFPAVLQSSGLYSLSSVVTVPSSSLGTKTYTCNVDHKPSNTKVDKRVESKYGPPCPPCPAPPVAGPSVFLFPPKPKDTLMISRTPEVTCVVVDVSQEDPEVQFNWYVDGVEVHNAKTKPREEQFNSTYRVVSVLTVLHQDWLNGKEYKCKVSNKGLPSSIEKTISKAKGQPREPQVYTLPPSQEEMTKNQVSLTCLVKGFYPSDIAVEWESNGQPENNYKTTPPVLDSDGSFFLYSRLTVDKSRWQEGNVFSCSVMHEALHNHYTQKSLSLSLGK
heavy 2: EVQLVESGGGLVQPGRSLRLSCAASGFTFDDYSMHWVRQAPGKGLEWVSGISWNSGSKGYADSVKGRFTISRDNAKNSLYLQMNSLRAEDTALYYCAKYGSGYGKFYHYGLDVWGQGTTVTVSSASTKGPSVFPLAPCSRSTSESTAALGCLVKDYFPEPVTVSWNSGALTSGVHTFPAVLQSSGLYSLSSVVTVPSSSLGTKTYTCNVDHKPSNTKVDKRVESKYGPPCPPCPAPPVAGPSVFLFPPKPKDTLMISRTPEVTCVVVDVSQEDPEVQFNWYVDGVEVHNAKTKPREEQFNSTYRVVSVLTVLHQDWLNGKEYKCKVSNKGLPSSIEKTISKAKGQPREPQVYTLPPSQEEMTKNQVSLTCLVKGFYPSDIAVEWESNGQPENNYKTTPPVLDSDGSFFLYSRLTVDKSRWQEGNVFSCSVMHEALHNRFTQKSLSLSPGK
light: not shown
notes: Anti-BCMA arm from mAb21581, anti-CD3 arm and common light chain from mAb7221G; also called bsAb25441D9; mAb25441D
B2: bsAb25442D bispecific antibody (REGN5459), anti-BCMA x anti-CD3 (bispecific antibody, human IgG4 S228P, kappa)
heavy 1: B1 heavy 1
heavy 2: B1 heavy 2 with K58I, H108Y, L111M
light: not shown
notes: Anti-BCMA arm from mAb21581, anti-CD3 arm and common light chain from mAb7221G20; also called mAb25442D; mAb25442D-A647

Experiments:
[1] = target: T1, human BCMA on the surface of cell lines (NCI-H929, MM.1S, OPM-2, RPMI-8226, Daudi, Raji, MOLP-8, U266) (human, UniProt Q02223 1-184); assay: cell-based or functional assay
T1 sequence: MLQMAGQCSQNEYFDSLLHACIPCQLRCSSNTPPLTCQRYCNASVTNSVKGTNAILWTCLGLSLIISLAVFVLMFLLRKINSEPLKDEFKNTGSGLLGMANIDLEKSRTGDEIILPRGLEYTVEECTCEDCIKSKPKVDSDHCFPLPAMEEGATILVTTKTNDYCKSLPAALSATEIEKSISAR

[2] = target: T2, human CD3 on cells (Jurkat cells, primary human CD8+ T cells) (human, UniProt P07766 23-207; P04234 22-171; P20963 22-164; P09693 23-182); assay: flow cytometry, Jurkat cells (human CD3), median EC50, n=5
T2 construct: CD3 complex as part of the TCR on T cells; also called hCD3; Jurkat-hCD3
Protocol: (§1) Flow cytometric analysis was utilized to determine binding of BCMA×CD3 bispecific antibodies to human and cynomolgus CD3 (Jurkat cells, mfCD3 engineered Jurkat cells, primary human CD8+ and cynomolgus CD8+ T cells). Briefly, 1e05 cells/well were incubated in the presence of FACS wash with block (PBS+1% filtered FBS+5% mouse serum) with a serial dilution of BCMA×CD3 and control antibodies for 30 minutes on ice. After incubation, the cells were washed twice with cold FACS wash (PBS+1% filtered FBS) and bound antibody was detected by incubating with Alexa647-conjugated anti-human secondary antibody on ice for an additional 30 minutes. Wells containing no antibody or secondary only were used as a control. For the detection of monkey and human T cells, a cocktail of human and cynomolgus cross-reactive antibodies to CD4, CD8 and CD16 was added to the anti-human secondary. After incubation, cells were washed, re-suspended in 200 μL cold PBS containing 1% filtered FBS and analyzed by flow cytometry on a BD FACS Canto II. Cells were gated by FSC-H by FSC-A to select singlet events, followed by side and forward scatters to select for live events. For monkey T cells, additional gating on CD8+/CD16-cells was performed.
(§2) EC50 values for FACS binding were calculated using 4-parameter non-linear regression analysis in Prism software.

[3] = target: T3, cynomolgus CD3 on cells (mfCD3 engineered Jurkat cells, primary cynomolgus CD8+ T cells) (cynomolgus, UniProt Q95LI5 22-198; Q95LI8 22-171); assay: flow cytometry, mfCD3 engineered Jurkat cells, median EC50, n=2
T3 construct: whole, on cells; The engineered Jurkat line expresses cynomolgus CD3 epsilon and delta in place of the human versions (other chains remain human); primary cynomolgus T cells carry the whole cynomolgus complex; also called Jurkat-mfCD3; Mf (Cyno) CD3
Protocol: as §1, §2

[4] = target: T3, cynomolgus CD3 on cells (mfCD3 …); assay: flow cytometry, primary cynomolgus CD8+ T cells, median EC50, n=1
Protocol: as §1, §2

[5] = target: T1, human BCMA on the surface of cell lines …; assay: cell-based or functional assay; remark: listed apart in the source
[6] = target: T1, human BCMA on the surface of cell lines …; assay: cell-based or functional assay; remark: listed apart in the source
[7] = target: T1, human BCMA on the surface of cell lines …; assay: flow cytometry, Alexa647 conjugate on Daudi cells
Protocol: (§3) Cells were then washed and fixed for 25 mins at 4° C. using a 50% solution of BD Cytofix (BD, Cat #554655) diluted in PBS. […] After gating for live cells and single cells, the mean fluorescent intensity (MFI) was determined, and MFI values were plotted in Graphpad Prism using a four-parameter logistic equation over a 10-point response curve to calculate EC₅₀s. The zero condition for each dose-response curve is also included in the analysis as a continuation of the two-fold serial dilution and is represented as the lowest dose.

[8] = target: T1, human BCMA on the surface of cell lines …; assay: flow cytometry, Alexa647 conjugate on Raji cells
Protocol: as §3

[9] = target: T1, human BCMA on the surface of cell lines …; assay: flow cytometry, Alexa647 conjugate on MM.1S cells
Protocol: as §3

[10] = target: T1, human BCMA on the surface of cell lines …; assay: flow cytometry, Alexa647 conjugate on OPM-2 cells
Protocol: as §3

[11] = target: T1, human BCMA on the surface of cell lines …; assay: flow cytometry, Alexa647 conjugate on RPMI-8226 cells
Protocol: as §3

[12] = target: T1, human BCMA on the surface of cell lines …; assay: flow cytometry, Alexa647 conjugate on NCI-H929 cells
Protocol: as §3

T2 sequence (P07766 23-207 limits assumed, chain 1 of 4): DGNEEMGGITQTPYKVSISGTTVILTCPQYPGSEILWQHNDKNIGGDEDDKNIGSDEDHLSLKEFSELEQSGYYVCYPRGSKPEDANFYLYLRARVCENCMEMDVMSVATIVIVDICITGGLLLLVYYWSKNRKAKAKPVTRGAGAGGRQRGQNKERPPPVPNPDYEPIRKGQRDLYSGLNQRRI
T2 sequence (P04234 22-171 limits assumed, chain 2 of 4): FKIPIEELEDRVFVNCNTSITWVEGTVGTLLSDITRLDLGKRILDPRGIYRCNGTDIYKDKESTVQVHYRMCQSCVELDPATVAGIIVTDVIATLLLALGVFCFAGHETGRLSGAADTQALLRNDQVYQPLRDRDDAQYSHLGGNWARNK
T2 sequence (P20963 22-164 limits assumed, chain 3 of 4): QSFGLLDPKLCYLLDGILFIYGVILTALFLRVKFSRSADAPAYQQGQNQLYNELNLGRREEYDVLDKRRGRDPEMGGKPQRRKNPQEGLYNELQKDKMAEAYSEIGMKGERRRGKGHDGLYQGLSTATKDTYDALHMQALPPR
T2 sequence (P09693 23-182 limits assumed, chain 4 of 4): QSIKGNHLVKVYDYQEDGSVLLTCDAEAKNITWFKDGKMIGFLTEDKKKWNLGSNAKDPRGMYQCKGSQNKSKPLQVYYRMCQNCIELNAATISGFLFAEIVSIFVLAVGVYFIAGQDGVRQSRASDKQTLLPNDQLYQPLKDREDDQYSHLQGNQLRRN
T3 sequence (Q95LI5 22-198, stated change not applied, chain 1 of 2): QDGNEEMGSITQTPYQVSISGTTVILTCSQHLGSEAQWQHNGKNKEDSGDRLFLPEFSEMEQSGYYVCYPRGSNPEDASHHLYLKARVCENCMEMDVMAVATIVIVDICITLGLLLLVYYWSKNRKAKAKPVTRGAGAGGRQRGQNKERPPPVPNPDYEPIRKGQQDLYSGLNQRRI
T3 sequence (Q95LI8 22-171, stated change not applied, chain 2 of 2): as the sequence (P04234 22-171 limits assumed, chain 2 of 4) above, with I5V, N15K, I20V, S32T, D33N, I34N, T64A, S74N, V83L, H141R counted along it

| Binder | Median EC50, % Survival of Molp8 target cells, human effector cells [1] | Median EC50, % Survival of RPMI8226 target cells, human effector cells [1] | Median EC50, % T activation with Molp8 target cells, human effector cells [1] | Median EC50, % T activation with RPMI8226 target cells, human effector cells [1] | EC50 [2] | EC50, Jurkat/NFATLuc reporter activation with Daudi cells [5] | EC50, Jurkat/NFATLuc reporter activation with MM1-S cells [5] | EC50, Jurkat/NFATLuc reporter activation with NCI-H929 cells [5] | EC50, Jurkat/NFATLuc reporter activation with OPM-2 cells [5] | Median EC50, % Survival of H929 target cells, human effector cells [6] | Median EC50, % Survival of MM1S target cells, human effector cells [6] | Median EC50, % Survival of U266 target cells, human effector cells [6] | Median EC50, % T activation with H929 target cells, human effector cells [6] | Median EC50, % T activation with MM1S target cells, human effector cells [6] | Median EC50, % T activation with U266 target cells, human effector cells [6] | further results |
| --- | --- | --- | --- | --- | --- | --- | --- | --- | --- | --- | --- | --- | --- | --- | --- | --- |
| B1 | 0.707 nM | 0.0345 nM | 1.1 nM | 0.0649 nM | 15 nM | 2.1 nM | 1.2 nM | 0.68 nM | 0.66 nM | 0.103 nM | 0.0646 nM | 0.328 nM | 0.211 nM | 0.0706 nM | 0.107 nM | EC50 [3]: 15.1 nM; EC50 [4]: 46.6 nM |
| B2 | 1.36 nM | 0.106 nM | 6.47 nM | 0.75 nM | 558 nM | 7.9 nM | 4.4 nM | 2.7 nM | 2.6 nM | 0.301 nM | 0.288 nM | 1.66 nM | 0.3 nM | 0.458 nM | 0.469 nM | S/N (ratio of mAb25442D-A647 MFI to Isotype-A647 MFI) [7]: 3; S/N (ratio of mAb25442D-A647 MFI to Isotype-A647 MFI) [8]: 2; EC50 [9]: 83 nM; S/N (ratio of mAb25442D-A647 MFI to Isotype-A647 MFI) [9]: 43; EC50 [10]: 57 nM; S/N (ratio of mAb25442D-A647 MFI to Isotype-A647 MFI) [10]: 19; EC50 [11]: 27 nM; S/N (ratio of mAb25442D-A647 MFI to Isotype-A647 MFI) [11]: 9; EC50 [12]: 79 nM; S/N (ratio of mAb25442D-A647 MFI to Isotype-A647 MFI) [12]: 470 |

Reference: patent US20210206865A1 (Regeneron, published 2021)
